System: MS2 coat protein
Experiment: apparent KD of MS2 coat protein; designed switch direction (-1 OFF switch, 1 ON switch): -1; higher = weaker reporter binding
Outline: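 Transcription of designed RNA switches on Illumina chips was done by stalled E. coli RNA polymerase. SNAP-549-labelled MS2 coat protein was then titrated in doubling steps from 0.7 or 1.5 nM to 3 µM, with steps of 0.8–1.5 h at the lowest and 10–20 min at the highest concentration. The per-design median over clusters of curve-fitted normalised fluorescence is reported as apparent KD.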

[1] = Eterna round: R95, input ligand: FMN 200 uM
[2] = Eterna round: R95, input ligand: microRNA oligo, concentration not stated
[3] = Eterna round: R95, input ligand: none
[4] = input ligand: microRNA oligo, concentration not stated

Row | Sequence | apparent KD of MS2 coat protein [1] [nM] | apparent KD of MS2 coat protein [2] [nM] | apparent KD of MS2 coat protein [3] [nM] | apparent KD of MS2 coat protein (input ligand: FMN 200 uM) [nM] | apparent KD of MS2 coat protein (input ligand: none) [nM] | apparent KD of MS2 coat protein [4] [nM]
1 | AGAGAGUCAGGAUAUCGGAGGGAGAGGAGAGGAGAGAGGGACGAGAAGGGACAUGAGGAUCACCCAUGUAGGUG [JR_Exclusion4)Sub017] (puzzle: Exclusion 4) | 263 | 437 | 663 | – | – | –
2 | AGAGUACAUGUGAGGAUAUCUGGAGUGUCCCACGAAGAGAAGGCACAUGAGGAUCACCCAUGUCGUCCCGGUUU [Eternabot (L1) Solution 28] (Eterna round: R97, puzzle: Brourd's mod of Exclusion 4) | – | – | – | 22.5 | 17.1 | –
3 | AGAGUGCUGCGAGGAUAUACAUGAGGAUCACCCAUGUUUACCUGUGAGGCAAAGCCUCACAGGUUGUAGAAGGCGCAGUACUCA [Mat - Exclusion NG 2 - Mod of JL - D42] (Eterna round: R96, puzzle: Exclusion NG 2) | – | – | – | 9.39 | 19.4 | 10.1
4 | AGAGUGCUGCGAGGAUAUACAUGAGGAUCACCCAUGUUUUCGUGUGAGGCUUUGCCUCACACGAAGUAGAAGGCGCAGUACUCA [Mat - Exclusion NG 2 - Mod of JL - D32] (Eterna round: R96, puzzle: Exclusion NG 2) | – | – | – | 7.28 | 10.9 | 9.46
5 | AGAUAACAUGAGGAUCACCCAUGUGAGGAUAUUUACCCAAGAGCUUCGGCUCUCAGGUGAAGAAGGCACGUUGA [EX1 #59] (Eterna round: R97, puzzle: Exclusion 1) | – | – | – | 109 | 55.4 | –
6 | AGAUAGUGGUGAGGAUAUCAGAAUAGAAAGAAAUGAGAAGGCACACAUGAGGAUCACCCAUGUGAGGUCUUGAGACUACAUGGU [Prohibition 40 - Jieux - Exclusion NG 1] (Eterna round: R96, puzzle: Exclusion NG 1) | – | – | – | 21.2 | 17.3 | 12.5
7 | AGAUCACAUGAGGAUCACCCAUGUGAGGAUAUGAUACUAUGUACUUCGGUACAUAGUAUCAGAAGGCAUGUGGA [Ex1-3: 75] (puzzle: Exclusion 1) | – | 53.7 | – | – | – | –
8 | AGAUCACAUGAGGAUCACCCAUGUGAGGAUAUGGACUGAAGAGCUUCGGCUCUUCAGUCCAGAAGGCACAAUGA [EX1 #43] (Eterna round: R97, puzzle: Exclusion 1) | – | – | – | 40.7 | 28.9 | –
9 | AGAUGCUCAAGUCGACAUGAGGAUCACCCAUGUACAGUUAAUGAGGAUAUCCGAGAUAAAUAAUAGGAGAAGGCAUGAUCAUGA [Ex NG3 #4] (Eterna round: R96, puzzle: Exclusion NG 3) | – | – | – | 103 | 102 | 47.3
10 | AGAUGGCGAGGAUAUACAUGAGGAUCACCCAUGUGAAUAAUAAUAGUGAGGAAGAAAAGUAGAAGGCGCUGUCA [Mat - Exclusion 3 - Mod of Salish D34] (puzzle: Exclusion 3) | 357 | 42.1 | 41.2 | – | – | –
11 | AGAUGUACCUAGGAUAUCCGUCUUAUUGGACUAGGAGAAGGAGGUACAUGAGGAUCACCCAUGUAUGACUCCUG [Veisteer] (puzzle: Exclusion 6) | – | 9.08 | – | – | – | –
12 | AGAUGUAGAUACCGAUCCUACAUGAGGAUCACCCAUGUAGCUAGACGUGCUCGCGUCGCUCGUCAGACUACCAGUAG [salish99_TOv1_r3_089] (puzzle: Sensor v3, turn-off variant 1) | 267 | 199 | 259 | – | – | –
13 | AGAUGUAGAUACCGGUCCUACAUGAGGAUCACCCAUGUAGCUAGACGUGCGGGCGGCGCUCGUCGGACUACCAGUAG [salish99_TOv1_r3_098] (puzzle: Sensor v3, turn-off variant 1) | 39.4 | 42.8 | 59.7 | – | – | –
14 | AGCAAGCUUUUAAGAUCCUACAUGAGGAUCACCCAUGUGCUCGUCUUGUAACGUACUGUGACGAAAGUCACGGUACG [JL TOV1 3.31] (Eterna round: R97, puzzle: Sensor, turn-off variant 1) | – | – | – | 374 | 506 | –
15 | AGCAAGUCAGGAUAUCAAAGCAGCUAUAUGCUGCCCGGGCUUGAGAAGGGACUUGAGGAUCACCCAAGUGAUAG [Titiar] (Eterna round: R97, puzzle: Exclusion 4) | – | – | – | 101 | 25.1 | –
